One may read the stoichiometry N as the number of molecules, sites or subunits per partner or assembly.

The data set concerns the molecule itself. Put plainly: SEC. (Size exclusion chromatography separates by hydrodynamic size, large species first.)

B1: SARS-CoV 3C-like protease (3CL^pro) (enzyme)
chain: SGFRKMAFPSGKVEGCMVQVTCGTTTLNGLWLDDTVYCPRHVICTAEDMLNPNYEDLLIRKSNHSFLVQAGNVQLRVIGHSMQNCLLRLKVDTSNPKTPKYKFVRIQPGQTFSVLACYNGSPSGVYQCAMRPNHTIKGSFLNGSCGSVGFNIDYDCVSFCYMHHMELPTGVHAGTDLEGKFYGPFVDRQTAQAAGTDTTITLNVLAWLYAAVINGDRWFLNRFTTTLNDFNLVAMKYNYEPLTQDHVDILGPLSAQTGIAVLDMCAALKELLQNGMNGRTILGSTILEDEFTPFDVVRQCSGVTFQ
notes: also called 3CL^pro from SARS-CoV; main protease
For the protein B1, the “stoichiometry N” value amounted to 2.

B2: HCoV-OC43 3C-like protease (3CL^pro) (enzyme)
chain: SGIVKMVNPTSKVEPCVVSVTYGNMTLNGLWLDDKVYCPRHVICSASDMTNPDYTNLLCRVTSSDFTVLFDRLSLTVMSYQMRGCMLVLTVTLQNSRTPKYTFGVVKPGETFTVLAAYNGKPQGAFHVTMRSSYTIKGSFLCGSCGSVGYVIMGDCVKFVYMHQLELSTGCHTGTDFNGDFYGPYKDAQVVQLPIQDYIQSVNFLAWLYAAILNNCNWFIQSDKCSVEDFNVWALSNGFSQVKSDLVIDALASMTGVSLETLLAAIKRLKNGFQGRQIMGSCSFEDELTPSDVYQQLAGIKLQ
notes: also called 3CL^pro from HCoV-OC43; main protease; not shown: His6-SUMO or His6-MBP, N-terminal, cleaved
As for B2, the “stoichiometry N” value worked out at 2.

The values above are taken from publication PMC3206940 (PLoS ONE, 2011).
